Measurements: the DeepSol protein solubility set

Assay: soluble on expression in E. coli; label from the status in PepcDB or PDB records

For “MSIKSDSRHLYLQVIDRIKRDIETGVYKEKQKLPSEFELAKQLGVSRATLREALRVLEEENIIIRRHGVGTFVNARPLFTSGIEQLSSVTDMIRQAGRKPGTIFLSSSIQQPTEDDMRRFQCRPDENLLLIERVRTADGEPVVYCLDKILCKYLPKGISYEHESLFENLHNQTHRDIAYAVARIVPLGYHEKVSPILQCDPETALLVLKQMHFDKNDEPIFYSVNYFRSDKFSFHVMRKRFSF”, which “soluble on expression in E. coli” value is on record?
Its value is “not soluble”.

With “MSILPSNTPLYSHPLPQIEQWLKDQGCQQDENELHCWRLQKPSWQAEIWLDIEQITVRYIQAGENGQNIQRSFKYSLSRQDIEQAIFCGP” as the sequence, how does the “soluble on expression in E. coli” value read?
The value was “not soluble”.

For “MSINTANTPDGLGVLLYNGETIVIFAQGVVMTLGTSENENLEGRRTGTIYLTSHRIIFMPDPGDWLKSFEIPFNSMQDVNLNQPIFGANYLCGIASAVQGGQMRGEVKWRMTFNRGGCIEFGQSLLQAVERAVRMRPENAPPAYSPPIGDFYSAPPAYYQPSPDQGPNGFNPTTDSFPDQPNPSRVFMSSAPPPYPGIGPERGPHPTEELHVAGQFEAPPAYGSGETADGLRRRN”, which “soluble on expression in E. coli” value is on record?
Its value is “not soluble”.

For “MSIPFTRWPEEFARRYREKGYWQDLPLTDILTRHAASDSIAVIDGERQLSYRELNQAADNLACSLRRQGIKPGETALVQLGNVAELYITFFALLKLGVAPVLALFSHQRSELNAYASQIEPALLIADRQHALFSGDDFLNTFVTEHSSIRVVQLLNDSGEHNLQDAINHPAEDFTATPSPADEVAYFQLSGGTTGTPKLIPRTHNDYYYSVRRSVEICQFTQQTRYLCAIPAAHNYAMSSPGSLGVFLAGGTVVLAADPSATLCFPLIEKHQVNVTALVPPAVSLWLQALIEGESRAQLASLKLLQVGGARLSATLAARIPAEIGCQLQQVFGMAEGLVNYTRLDDSAEKIIHTQGYPMCPDDEVWVADAEGNPLPQGEVGRLMTRGPYTFRGYYKSPQHNASAFDANGFYCSGDLISIDPEGYITVQGREKDQINRGGEKIAAEEIENLLLRHPAVIYAALVSMEDELMGEKSCAYLVVKEPLRAVQVRRFLREQGIAEFKLPDRVECVDSLPLTAVGKVDKKQLRQWLASRASA”, which “soluble on expression in E. coli” value is on record?
Its value is “soluble”.

With “MSISASEARQRLFPLIEQVNTDHQPVRITSRAGDAVLMSADDYDAWQETVYLLRSPENARRLMEAVARDKAGHSAFTKSVDELREMAGGEE” as the sequence, how does the “soluble on expression in E. coli” value read?
Its value is “soluble”.

With “MSITEQVDVAIVGSGPAGLAAAIELRRQGVARVCVLERDGEAGGIPRHCAHPPFGLREHGRLLTGPAYAQRNVEQAERAGVDIRLRHSVVALAAAGLLQLATPEGPRSLRATRVLLATGARETPRSARLLGGDRPLGVINTGALQAYLYLQGLKPFERPLIVGTELVSLSAVMSCRRAGIRPVAMLERNARATARWPLSLFPRLCGVPMHFSSELLEIEGRGRVEAARVRLGDGRVERIACDGILLSGRFVPESSLVRLSHLELDPASGGPRIDQFGRCSDPAYFAAGNLLRPIETAGWSFREGRRIAGLLAADLRAELPSAAPGIAIDCSGPLKLCVPQRLLADPTPGLAHLQLRVSEAASGRLRILADGRPVWERALSCLPERRLLVPLAALRLPPDTRRLEVAFLTSGHLEHHHHHH” as the sequence, how does the “soluble on expression in E. coli” value read?
Its value is “not soluble”.

Which “soluble on expression in E. coli” value does the source give for “MSKFAERLQTVANKPEVFQKFSRGLERESLRYTPEGALTQTPHPKALGAALTHRWITTDFAESLLEFITPVSHEVDTLLAQMSDIHHFAQTKLGDEKLWPLSMPCYVGSEEGIVLAQYGSSNTGKMKTLYREGLKRRYGSLMQIISGVHFNFSFPESFWDALFGEQEESARQASKSAAYFGVIRNYYRFGWLIPYLFGASPALCSSFLQGRKTDLPFESIGKTLYLPYATSLRLSDLGYTNSAQSVLQIGFNSIEQYLQGLNEAIRTPSAEFAKLGVKVEGEYRQLNSNVLQIENELYAPIRPKRVTQSGERPSQALARAGVEYIEVRSLDVNPFSPIGINEDQVRFLDLFLAWTALSDSDPMDGCELACWRDNWRKVVLEGRKPGLELQIGCHGEVLTLQAWAKRVFADLRVIAETMDAALGGDAYQAVCAKLETWIENPELTLSAQILAEIKQHGGLGKTGCALGNEYRAVNLQHQYQFYSQDEMEQEVRRSTQAQADIEAKETLNFDAYLTQYFAYLQAVS” here?
Its value is “not soluble”.

Which “soluble on expression in E. coli” value does the source give for “MSKHRIALAGNPNTGKSTLFNTLTGLKQHTGNWTGKTVLKAEGEYEHNGSNYTLIDLPGTYSLYSNSADEEVARDYIIFEKPEVTVVVIDATAMERNLNLALQVMEMTNNVVICINLIDEAEKKGIVIDEKKLAKSLGVPVVKISARNRVGIGHLLNVIAKVANKKLIPTPIKITYSEKIENMIQELEPQIYKVFGDTYPARWIALRILDGDKNFLTTLQKHHNEPLVREVVINGISLSQ” here?
The value was “not soluble”.

For “MSKIYVLDTNVLLQDPNAIFSFEENEVVIPAVVLEEVDSKKRYMDEVGRNARHVSKLIDALRQKGRLHEHVPLDTGGTLRIELNHRSFHQLQEIFIEKTNDNRILAVAKNLSLEEETKENGRPVILVSKDVLVRVKADAIGLLAEDFLNDRVVDNDEMY”, which “soluble on expression in E. coli” value is on record?
The value was “not soluble”.

For “MSKPLPLVTRQGDRIVIVNGLRTPFAKQATAYHGVPAVDLGKIVVSELLARSGISSELIDQLVFGQVVQMPEAPNIAREIVLGTGMSVHTDAYSVSRACATSFQAVANVAESIIAGSVDIAIAGGADSSSVLPIGVSKALARTLVDANKARSLSQKLKLFSRLRLRDLLPVAPAVAEYSTGLRMGDTAEQMAKTYGISREDQDALALRSHQLAAEAWQQGWLHDEVMTAYIPPYREAIIEDNNIRKDSTLAQYAKLRPAFDRQHGSVTAANSTPLTDGAAAVLMMSESKAKALGLPPLGYLRSFAFSAIDVWQDMLLGPSYATPLALDRAGITLADLTLIDMHEAFAAQTLANLKMFASDTFAREKLGRSQAIGEVDMSKFNVLGGSIAYGHPFAATGARMITQTLNELRRRGGGLGLTTACAAGGLGAAMILEVE”, which “soluble on expression in E. coli” value is on record?
Its value is “not soluble”.

Which “soluble on expression in E. coli” value does the source give for “MSKRILFIVGSFSEGSFNRQLAKKAETIIGDRAQVSYLSYDRVPFFNQDLETSVHPEVAHAREEVQEADAIWIFSPVYNYAIPGPVKNLLDWLSRSLDLSDPTGPSVLQDKIVTVSSVANGASPEEVFEDYRSLLPFIRMHLVDQLTGVPINSEAWSTGILKVSAEKLAELSAQADALLSAIENLEHHHHHH” here?
The value was “soluble”.

With “MSKSNQKIASIEQLSNNEGIISALAFDQRGALKRMMAKHQTEEPTVAQIEQLKVLVAEELTQYASSILLDPEYGLPASDARNKDCGLLLAYEKTGYDVNAKGRLPDCLVEWSAKRLKEQGANAVKFLLYYDVDDAEEINIQKKAYIERIGSECVAEDIPFFLEVLTYDDNIPDNGSVEFAKVKPRKVNEAMKLFSEPRFNVDVLKVEVPVNMKYVEGFAEGEVVYTKEEAAQHFKDQDAATHLPYIYLSAGVSAELFQETLKFAHEAGAKFNGVLCGRATWSGAVQVYIEQGEDAAREWLRTTGFKNIDDLNKVLKDTATSWKQRK” as the sequence, how does the “soluble on expression in E. coli” value read?
Its value is “soluble”.

Which “soluble on expression in E. coli” value does the source give for “MSKSSYYAPHGGHPAQTELLTDRAMFTEAYAVIPKGVMRDIVTSHLPFWDNMRMWVIARPLSGFAETFSQYIVELAPNGGSDKPEQDPNAEAVLFVVEGELSLTLQGQVHAMQPGGYAFIPPGADYKVRNTTGQHTRFHWIRKHYQKVDGVPLPEAFVTNEQDIQPLVMPDTEGRWSTTRFVDMSDMRHDMHVNIVNFEPGGVIPFAETHVMEHGLYVLEGKAVYRLNQDWVEVEAGDFMWLRAFCPQACYSGGPGRFRYLLYKDVNRHMRLTLNAPHLEHHHHHH” here?
The value was “soluble”.

With “MSKTVTIRRPSPTKTSEEPAAHQTPIFTQTAAEMLGITSLNTEAAELLEFLSREKLKEIVRLSAKWTQKSARRRMAVADVEHAIRSTRQCGGLNISSVDTLNLGIQQLQPIQGTSTGIYSFLKSSADVDVDKEDTETFIKIPRDLRVISYPLVNEGQPVQSEYTVNVDEDDGNFFEKIVPEVMTMIPEKNTPSSSTTSSLQMFRDAVKTAKIDQKVGLKPSTIEILTVEQQIFMKDIITVCMGQDDKKRHEALYTLETDAGLQVFLPHLTERICKSISANISQRCLSLIIYAGRVLRSLSHNKACDMTVTLHHVLPALLSCCVGRNMCLRPETDNHWALRDFSAKTLVGLVRDQVDKHDAGRTARRLFDFSHRIFRDTGSSFSMIYGTVHILQEFVAGPKKAAWLLTELGETNARCKSHIESGSRIGASQLSIQEAQKLNQQILKCENSIRNRYNLQQQAPGVPINRRFH” as the sequence, how does the “soluble on expression in E. coli” value read?
Its value is “not soluble”.

Which “soluble on expression in E. coli” value does the source give for “MSKVALFSHVSPDGDCIGSMLGIGLALEALGKEVAMFNPDPIPRNLSFLPGVDKITQSMPDPLPETLLFVDCADLQRVQLQREDLPADAVILNLDHHISNQNFGRINWVDSQAAASGELAYALVRRLNVELTQEIAANFYTALLTDTGSFKYANTTAKTHQIAGELMELEHHHHHH” here?
The value was “not soluble”.

With “MSKVLELAKELGAEVIQTHTSWVLLLKDVVYKIKKPVNFGFLDYSTLEKRKEMCYKEVELNRRLCPWVYIGVVPISEVKGKWVIENDENVVEYAVKMRRIPDEAILSNRLDKTTEEDLKKVAKVVADFHVRAKRVDEFGKMEVMKYNTDENFAQTEKYIGITISKEDYDFIKRKTNEFYEKHADIFEKRIKEGRIRDGHGDIRTEHVAFLEEGVCIFDCIEFNDRFRYGDVLNDMCFLSMELEYFGREYLARAYEEEYRRISKDPDFDLMLPFFKCYRAYVRGKVNSFLLDDPNLTQEEKEKAKERATKFFKLARTYAEMIK” as the sequence, how does the “soluble on expression in E. coli” value read?
The value was “not soluble”.

For “MSKVVPIASLTPYQSKWTICARVTNKSQIRTWSNSRGEGKLFSLELVDESGEIRATAFNEQVDKFFPLIEVNKVYYFSKGTLKIANKQFTAVKNDYEMTFNNETSVMPCEDDHHLPTVQFDFTGIDDLENKSKDSLVDIIGICKSYEDATKITVRSNNREVAKRNIYLMDTSGKVVTATLWGEDADKFDGSRQPVLAIKGARVSDFGGRSLSVLSSSTIIANPDIPEAYKLRGWFDAEGQALDGVSISDLKS”, which “soluble on expression in E. coli” value is on record?
Its value is “soluble”.

For “MSLAAHYDGLEKRTGAPYYGKKAEKVCNCAECLVFRRDVETGRLRLSNAYFCKVRLCSMCAWRRSLKIASHNKLIVEEANREYKPSWIFLTLTVRNVDGDDLKQTITDMMKAWNRLFGYKVVKTSVLGYFRALEITKNHEQNTYHPHFHVLIPVKRSYFTGKRYIKQAEWTSLWKRAMKLDYTPIVHVQRVKGKKGIDAEGIEKEVRKEMEEQKAILEISKYPVKDTDVIRGNEVTEENLDTVYYLDDALNARRLIGYGGILKEIHKELNLTDAEDGDLVRIEEDDDAVANETFEVMARWHVGIKNYIIQEGHHHHHH”, which “soluble on expression in E. coli” value is on record?
The value was “soluble”.

For “MSLAEIGVDAAFIDLLVETFYGRVLEHQTLGPVFDARLAGRWPEHMARMKQFWTAIAFKNGSYGGKPVQAHLGVQGMSAELFPQWLALFSVTLDDIAPSRKAHDWFMETAERIARSLTLSLFYNPAMDDPAVKREGHHHHHH”, which “soluble on expression in E. coli” value is on record?
The value was “not soluble”.

Which “soluble on expression in E. coli” value does the source give for “MSLAERLNNDFQFIEVGRKDPKKKLLRQRKKEFVEIYEPFKPQQSVEQAHRCLGCGNPYCEWKCPVHNFIPNWLKLVSEGNILAAAELSHQTNTLPEVCGRVCPQDRLCEGACTLNDGFGAVTIGSVEKYITDTAFAMGWRPDMSKVKPTGKRVAIIGAGPAGLGCADVLVRAGVTPVVFDKNPEIGGLLTFGIPEFKLEKTVLSNRREVFTGMGIEFRLNTEVGKDVTMEQLLAEYDAVFMGMGTYTYMKGGFPGEDLPGVHDALDFLIANVNRNLGFEKSPEDFVDMQGKKVVVLGGGDTAMDCNRTSIRQGAKAVTCAYRRDEANMPGSRKEVKNAKEEGVKFLYNRQPIAIVGEDKVEGVKVVETRLGEPDARGRRSPEPIPGSEEILPADAVVIAFGFRPSPAPWFEQHGIQLDSQGRVVAPEKGKFKHQTSNPKVFAGGDMVRGSDLVVTAIFEGRTAAEGILDYLEVEGHHHHHH” here?
The value was “soluble”.
